From US20100159527, “Polypeptides Having Nucleic Acid Binding Activity and Compositions and Methods For Nucleic Acid Amplification” (LIFE TECHNOLOGIES CORPORATION, published 2010)

Legend:
Pae3192 [1] = target: T1, Pae3192 (Pyrobaculum aerophilum); test: EMSA; 150 nM duplex, 0-12 uM protein; 170 mM NaCl, 1 mM CaCl2, 25 mM Tris pH 8.0, 40 C, 1% agarose; details: tags: expressed from pET16b with N-terminal 10xHis and Factor Xa site
T1 chain: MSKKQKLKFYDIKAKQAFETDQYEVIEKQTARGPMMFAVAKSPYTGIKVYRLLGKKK
Protocol: (§1) Gel-shift experiments were carried out using 150 nM 42-mer duplex and separate experiments were performed with 0, 1.5, 3, 6 or 12 uM Pae3192 protein. A DNA:DNA duplex was created by annealing DNA oligonucleotides 1a and 2a of Table 1 below. An RNA:RNA duplex was created by annealing RNA oligonucleotides 1b and 2b of Table 1 below. A DNA:RNA duplex was created by annealing DNA oligonucleotide 1a to RNA oligonucleotide 2b of Table 1 below. DNA binding reactions contained 170 mM NaCl, 1 mM CaCl₂ and 25 mM Tris, pH 8.0. Pae3192 was incubated separately with each of the three duplexes for 15 minutes at 40° C. before being run on a 1% agarose gel.

Pae3192 [2] = target: T1, Pae3192; test: EMSA; not shifted up to 12 uM protein; 170 mM NaCl, 1 mM CaCl2, 25 mM Tris pH 8.0, 40 C, RNasin Plus; details: tags: expressed from pET16b with N-terminal 10xHis and Factor Xa site
Protocol: as §1

| Binder | binding result (Pae3192 [1]) | binding result (Pae3192 [2]) |
| --- | --- | --- |
| 42-mer DNA:DNA duplex (oligos 1a+2a) (dsDNA) DNA 1: CAGACTGGAATTCAAGCGCGAGCTCGAATAAGAGCTACTGTT DNA 2: AACAGTAGCTCTTATTCGAGCTCGCGCTTGAATTCCAGTCTG | binds | – |
| 42-mer DNA:RNA duplex (oligos 1a+2b) (DNA:RNA) DNA: CAGACTGGAATTCAAGCGCGAGCTCGAATAAGAGCTACTGTT RNA: AACAGUAGCUCUUAUUCGAGCUCGCGCUUGAAUUCCAGUCUG | binds | – |
| 42-mer RNA:RNA duplex (oligos 1b+2b) (dsRNA) RNA 1: CAGACUGGAAUUCAAGCGCGAGCUCGAAUAAGAGCUACUGUU RNA 2: AACAGUAGCUCUUAUUCGAGCUCGCGCUUGAAUUCCAGUCUG | – | no binding |
